# According to paper PMC2599807 (Biochemistry, 2008):
# B1: O. brevis BxmR (CPx-ATPase metal-regulated repressor), wild-type (natural protein, Oscillatoria brevis, UniProt Q76L30 1-136, looked up)
# chain: MSPKSAVNGAISQPHQENDTPTCDRAHLVDCSRVGDIQTQVLNTAKAQRMAEFFSLLGDANRLRLVSVLAKQELCVCDLAATLGMSESAVSHQLRAMRAMRLVSYRKVGRQVFYSLLDRHVLELYRAVAEHLDEES
# Target: the molecule itself
# Assay: SEC + other: dynamic light scattering
protein,measurement,value
B1,stoichiometry N,2
